Target: T1, Bd0109 (Bdellovibrio bacteriovorus HD100, UniProt Q6MRH5 1-550)
T1 sequence (looked up): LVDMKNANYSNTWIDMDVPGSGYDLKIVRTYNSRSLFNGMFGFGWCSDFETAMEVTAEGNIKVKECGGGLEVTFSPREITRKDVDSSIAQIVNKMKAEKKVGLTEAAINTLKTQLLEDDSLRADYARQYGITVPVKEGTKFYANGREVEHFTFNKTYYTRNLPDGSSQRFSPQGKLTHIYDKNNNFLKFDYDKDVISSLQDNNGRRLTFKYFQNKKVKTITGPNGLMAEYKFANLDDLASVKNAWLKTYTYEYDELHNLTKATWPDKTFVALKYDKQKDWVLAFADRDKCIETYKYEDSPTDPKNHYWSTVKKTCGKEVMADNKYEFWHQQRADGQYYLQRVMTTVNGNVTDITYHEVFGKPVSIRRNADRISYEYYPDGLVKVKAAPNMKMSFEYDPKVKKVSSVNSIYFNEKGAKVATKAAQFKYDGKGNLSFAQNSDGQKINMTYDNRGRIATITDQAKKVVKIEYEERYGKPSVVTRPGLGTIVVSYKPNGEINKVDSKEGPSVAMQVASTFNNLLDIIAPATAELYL
Experiment: ITC; 1.2 mM Bd0108 titrated into 0.02 mM Bd0109; VP-ITC, 25°C; 20 mM Tris pH 7.0 100 mM NaCl 1 mM β-ME; one-site model
Settings: both partners purified

Kd: 45 µM
dH: -2.08 kcal/mol
stoichiometry N: 3.1
B1: Bd0108 (natural protein, Bdellovibrio bacteriovorus HD100)
chain: SHMADENANRPVNPGEDPNEAFRSTPFEATTSALGDCRECIAYRTGATTGKGSRRHDDTVSREIKGSSATPGGSEKAGTGRQ
modifications: disulfide between C56 and C59; 15N-labelled in the NMR titration
notes: tripeptide left on the mature N-terminus after thrombin cleavage of the His tag (cloning artefact); Bd0108 of Bdellovibrio bacteriovorus HD100, a 101 amino acid protein with an N-terminal Sec signal peptide; amino acids 23-101 cloned into pET28b; The assigned cloning artefacts (residues 21 and 22) in the titration point to this cytoplasmic construct and not to the PelB construct; also called …

From article PMC4267844, “The Lifestyle Switch Protein Bd0108 of Bdellovibrio bacteriovorus Is an Intrinsically Disordered Protein” (PLoS ONE, 2014)
